The test system of this data set is MS2 coat protein. Kind of data set: apparent KD of MS2 coat protein; designed switch direction (-1 OFF switch, 1 ON switch): -1; higher = weaker reporter binding. A digest of the protocol:
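An oligonucleotide input, 200 uM small-molecule ligand, or no input was present during titration of SNAP-549-labelled MS2 coat protein, which was doubled from 0.7 or 1.5 nM to 3 µM. Designed RNA switches had been transcribed on Illumina chips by stalled E. coli RNA polymerase. Apparent KD per design is the median over clusters of curves fitted to normalised cluster fluorescence.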

Where [1] appears, read: Eterna round: R95, input ligand: FMN 200 uM.
The mark [2] stands for this setting: Eterna round: R95, input ligand: microRNA oligo, concentration not stated.
Setting [3] is: Eterna round: R95, input ligand: none.
[4] abbreviates: input ligand: microRNA oligo, concentration not stated.

These results are taken from the supplement of paper PMC9170038.

As to “AAGAGCGUAGGAUAUACAUGAGGAUCACCCAUGUGAGGAGGGAAAAGGAGGUGUGGAAGUAGAAGGACGGAGUG [JR_Exclu3_Sub080] (puzzle: Exclusion 3)”, the “apparent KD of MS2 coat protein” value came to 31.8 nM under setting [1], 30.9 nM under setting [2] and 36.5 nM under setting [3].
Regarding “AAGAGGAUCAAAGGAUAUGGAGCUGAAACGGCGCUAGAAGGUUGUCCAGUGUAACAUGAGGAUCACCCAUGUAGGGACCUCUAA [AK ExNG1-V2-3] (Eterna round: R96, puzzle: Exclusion NG 1)”, the “apparent KD of MS2 coat protein” value was 100 nM (input ligand: FMN 200 uM), 57.5 nM under setting [4] and 42.9 nM (input ligand: none).
The matching figures for “AAGAGGCGGACAGGAUAUGGGAAAUUGUAAAGACCAGAAGGGUCGGCGAAAAUACAUGAGGAUCACCCAUGUGAAUCAUGACCA [AK ExNG1-7] (Eterna round: R96, puzzle: Exclusion NG 1)”: 89.1 nM, 31.6 nM and 42.5 nM.
As to “AAGAGUGCAGGAUAUACGUGAGAAAGGAGGAUGAGAGAAGGACAUGAGGAUCACCCAUGUAGAAGGGCAGAGAG [JR_Exclu2_Sub060] (puzzle: Exclusion 2)”, the “apparent KD of MS2 coat protein” value under setting [1] was 29.8 nM, the “apparent KD of MS2 coat protein” value under setting [2] stood at 36.4 nM and the “apparent KD of MS2 coat protein” value under setting [3] came to 76.8 nM.
As to “AAGCAACAUGAGGAUCACCCAUGUUAGGAUAUACGCAUGCAUGCAUGCAUGCAUGCAAGUAGAAGGAACCAUGC [Design #15] (Eterna round: R97, puzzle: Exclusion 1)”, the “apparent KD of MS2 coat protein” value runs as follows: (input ligand: FMN 200 uM) 32 nM; (input ligand: none) 49 nM.
The like results for “AAGCUGUCAGGAUAUCGUUAAUUUAGUUGUUUGUAUUAGUUCGAGAAGGGACAUGAGGAUCACCCAUGUAUGUA [Ex4 #39] (Eterna round: R97, puzzle: Exclusion 4)” were, in that order, 76.3 nM and 34.2 nM.
The matching figures for “AAGCUGUGAGGAUAUACAUGAGGAUCACCCAUGUUAAGGAAGUCGGGAUUAAUUUGGUGUAGAAGGCGCUUAUU [JR_Ex3_Sub019] (Eterna round: R97, puzzle: Exclusion 3)”: 46.1 nM and 48.6 nM.
Take “AAGGGACAUGAGGAUCACCCAUGUCAGGAUAUUAGUGUGAGUCACCUUGUGAAUACACUAAGAAGGGAUAGAAA [Eternabot (Original) Solution 38] (Eterna round: R97, puzzle: Exclusion 1)”: the “apparent KD of MS2 coat protein” value was determined as 69.8 nM (input ligand: FMN 200 uM) and 84.5 nM (input ligand: none).
With “AAGGGUACUUUCGGAACGACAUGAGGAUCACCCAUGUAGACUGAGGAUAUCUACUACUAAGGACGGGAGAAGGCAGUGUAAUGU [Ex NG3 #76] (Eterna round: R96, puzzle: Exclusion NG 3)”, the “apparent KD of MS2 coat protein” value under setting [4] worked out at 11.8 nM.
Consider “AAGGGUACUUUCGGAACGACAUGAGGAUCACCCAUGUAUACUGAGGAUAUCCACUACUAAGGACGGGAGAAGGCAGUGUACUGU [Ex NG3 #79] (Eterna round: R96, puzzle: Exclusion NG 3)”, for which the “apparent KD of MS2 coat protein” value worked out at 26.1 nM (input ligand: FMN 200 uM), 12.6 nM under setting [4] and 16.6 nM (input ligand: none).
In the case of “AAGUACCGUCACGAUAGUGAUGGUACAACAAGCAGUGAAACAUGAGGAUCACCCAUGUCCUCAAUUGCUCGUCUUAU [Sensor 3 - 74] (puzzle: Sensor v3, turn-off variant 2)”, the “apparent KD of MS2 coat protein” value was 39.9 nM under setting [1], 195 nM under setting [2] and 37.5 nM under setting [3].
Consider “AAGUACCGUCACGAUAGUGAUGGUACAACAGGCAAAUGUACAUGAGGAUCACCCAUGUCCUCUUUUGCUCGUCUUGU [Sensor 3 - 35] (puzzle: Sensor v3, turn-off variant 2)”, for which the “apparent KD of MS2 coat protein” value reads like this: under setting [1], 94.2 nM; under setting [2], 34 nM; under setting [3], 114 nM.
Turning to “AAGUACCGUCACGAUAGUGAUGGUACAGCAAGCAAGUGAACAUGAGGAUCACCCAUGUCCUCAAUUGCUCGUCUUAU [Sensor 3 - 72] (puzzle: Sensor v3, turn-off variant 2)”, the “apparent KD of MS2 coat protein” value reads like this: under setting [1], 25 nM; under setting [2], 55.5 nM; under setting [3], 24.1 nM.
Consider “AAGUAUAGAGGAUAUAGUGAGUACUACAUGAGGAUCACCCAUGUUCUUCAAAGCGUAUUUCUAGAAGGCUGAUGAA [EX-5 Malc#15] (puzzle: Exclusion 5)”, for which the “apparent KD of MS2 coat protein” value under setting [1] came out at 58.4 nM, the “apparent KD of MS2 coat protein” value under setting [2] was 38.8 nM and the “apparent KD of MS2 coat protein” value under setting [3] worked out at 51.5 nM.
With “AAUAACAAGCAAGAUCCUAACAUGAGGAUCACCCAUGUGCUCGUCUUAUAAAGUACUAUCACGAAAGUGAUAGUACA [Sensor 3, v1 - 45] (puzzle: Sensor v3, turn-off variant 1)”, the “apparent KD of MS2 coat protein” value runs as follows: under setting [1], 470 nM; under setting [2], 306 nM; under setting [3], 420 nM.
As for “AAUAACAAGCCGAUCCUCGACAUGAGGAUCACCCAUGUGCUCGUCUUGUAAAGUACUAUCACGAAAGUGAUAGUACA (Eterna round: R97, puzzle: Sensor, turn-off variant 1)”, the “apparent KD of MS2 coat protein” value worked out at 174 nM (input ligand: FMN 200 uM) and 419 nM (input ligand: none).
“AAUAACAAGUAGGAUCCUAACAUGAGGAUCACCCAUGUGCUCGUCUUAUAAAGUACUAUCACGAAAGUGAUAGUACA [Sensor 3, v1 - 53] (puzzle: Sensor v3, turn-off variant 1)”: the “apparent KD of MS2 coat protein” value reads like this: under setting [1], 44.4 nM; under setting [2], 64.2 nM; under setting [3], 83.5 nM.
On to “AAUAACAGAGGAUAUACUAUUUUAUGUGUUUAUUGUUUUAAACAUGAGGAUCACCCAUGUAGAAGGCUGAAUGA [JMF 59] (puzzle: Exclusion 2)”, for which the “apparent KD of MS2 coat protein” value under setting [2] was determined as 34.4 nM.
The same measure, in the same setting: then “AAUAACAGAGGAUAUACUAUUUUAUGUGUUUAUUGUUUUAAACAUGAGGAUCACCCAUGUAGAAGGCUGAGUAA [JMF 31] (puzzle: Exclusion 2)”, with 37.4 nM; and “AAUAACAGAGGAUAUACUAUUUUAUGUGUUUGUUAUUUUAAACAUGAGGAUCACCCAUGUAGAAGGCUGAAUAA [JMF 14] (puzzle: Exclusion 2)”, with 19.1 nM.
For the sequence “AAUAACAGAGGAUAUACUAUUUUAUGUGUUUGUUAUUUUGAACAUGAGGAUCACCCAUGUAGAAGGCUGAUUAA [JMF 49] (Eterna round: R96, puzzle: Exclusion 2)”, the “apparent KD of MS2 coat protein” value is, setting by setting: (input ligand: FMN 200 uM) 45.6 nM; under setting [4], 35.2 nM; (input ligand: none) 44.1 nM.
Take “AAUAACAGAGGAUAUACUAUUUUAUGUGUUUGUUAUUUUGAACAUGAGGAUCACCCAUGUAGAAGGCUGAUUAA [JMF 49] (puzzle: Exclusion 2)”: under setting [2], the “apparent KD of MS2 coat protein” value was 39.4 nM.
The same measure, in the same setting: for “AAUAACAGAGGAUAUACUAUUUUAUGUGUUUGUUGUUUUAAACAUGAGGAUCACCCAUGUAGAAGGCUGAGUAA [JMF 33] (puzzle: Exclusion 2)” the value was 21.8 nM.
Regarding “AAUAACAGAGGAUAUACUAUUUUAUGUGUUUGUUGUUUUAAACAUGAGGAUCACCCAUGUAGAAGGCUGAUUGA [JMF 74] (puzzle: Exclusion 2)”, under setting [2], the “apparent KD of MS2 coat protein” value is 31.1 nM.
Consider “AAUAACAGAGGAUAUACUGUUUUAUGUGUUUGUUAUUUUGAACAUGAGGAUCACCCAUGUAGAAGGCUGAAUAA [JMF 23] (Eterna round: R96, puzzle: Exclusion 2)”, for which the “apparent KD of MS2 coat protein” value by setting is: (input ligand: FMN 200 uM) 23.9 nM; under setting [4], 18.8 nM; (input ligand: none) 25.3 nM.
Turning to “AAUAACAGAGGAUAUACUGUUUUAUGUGUUUGUUAUUUUGAACAUGAGGAUCACCCAUGUAGAAGGCUGAAUAA [JMF 23] (puzzle: Exclusion 2)”, the “apparent KD of MS2 coat protein” value under setting [2] stood at 21.3 nM.
Take “AAUAACGAGCCGGUCCUCCACAUGAGGAUCACCCAUGUGUUCGUCUUGUAAAGUACUAUCACGAAAGUGAUAGUACA [mod jandersonlee2] (Eterna round: R97, puzzle: Sensor, turn-off variant 1)”: the “apparent KD of MS2 coat protein” value by setting is: (input ligand: FMN 200 uM) 746 nM; (input ligand: none) 858 nM.
On to “AAUAAUAAGGAGGAUAUCGUAUCGGAAACGAUACGAGAAGGCCUAACAUGAGGAUCACCCAUGUUCCUUAAAUA [Mat - Exclusion 6 - Eli Mod - D61] (puzzle: Exclusion 6)”, for which the “apparent KD of MS2 coat protein” value turned out to be 37.3 nM under setting [1], 19.1 nM under setting [2] and 20.1 nM under setting [3].
With “AAUAAUAGCGAGGAUAUCGUAUCGGAAACGAUACGAGAAGGCGUAACAUGAGGAUCACCCAUGUGUCCUCAAAA [Mat - Exclusion 6 - Eli Mod - D7] (Eterna round: R97, puzzle: Exclusion 6)”, the “apparent KD of MS2 coat protein” value by setting is: (input ligand: FMN 200 uM) 2520 nM; (input ligand: none) 146 nM.
The like results for “AAUAAUGAACGAGCUUUUUACAUGAGGAUCACCCAUGUCCUCUGCUCGUCUUGUCUUGGGCUUUUUUUGGGUUCGGG [-22.1, -44.7 kcal, A 17%] (Eterna round: R97, puzzle: Sensor, turn-off variant 1)” were, in that order, 331 nM and 338 nM.
The like results for “AAUAAUGAGUAGGAUAUCACUAGCGAUAGCUAGUGAGAAGGACUCACAUGAGGAUCACCCAUGUGUUCCAAUAA [Mod3 Ex6/6-A4 by Brourd] (Eterna round: R97, puzzle: Exclusion 6)” were, in that order, 195 nM and 50.8 nM.
As to “AAUAAUUGUGACUUGGGUGACAUGAGGAUCACCCAUGUUACAAGCUUGUUGCUCGUCUUAUAAUUAACCCAUGUCAC [LRO Sensor-off var1-24 mod of Stov1-13-A1 by Brourd] (Eterna round: R97, puzzle: Sensor, turn-off variant 1)”, the “apparent KD of MS2 coat protein” value came out at 21.1 nM (input ligand: FMN 200 uM) and 21.9 nM (input ligand: none).
